Test results from patent US20220356230A1 (published 2022).
Changes are numbered by the printed parent chain.

B1: mAb10930 (antibody, V domains shown)
VH: EVQLVESGGGLVQPGRSLRLSCAASGFTFDDYAMYWVRQAPGKGLEWVSGISWNSGSIGYADSVKGRFTISRDNAKNSLYLQMNSLRAADTALYYCAKDKDWNSRGYYYYGMDVWGQGTTVTVSS
VL: not shown
B2: mAb10923 (antibody, V domains shown)
VH: QVQLVQSGAEVKKPGASVKVSCKASGYTFINYYIHWVRQAPGQGLEWMGWINPNSGGTNYAQKFQGRVTMTRDTSISTAYMELSRLRSDDTAVYYCAIITIFGVVTWFDPWGQGTLVTVSS
VL: not shown
B3: mAb10969 (antibody, V domains shown)
VH: QVQLVESGGGVVQPGRSLRLSCAASGFTFSSYAMHWVRQAPGKGLEWVAVISYDGSNKYYADSVKGRFTISRDNSKNTLYLQMNSLRAEDTAVYYCARDGRTITMVRGVIDDAFDIWGQGTMVTVSS
VL: not shown
B4: mAb10936 (antibody, V domains shown)
VH: QVQLVESGGGVVQPGRSLRLSCAASGFTFRNYGMHWVRQAPGKGLEWVSVIWYDGSNRYYADSVKGRFTISRDTSKNTLYLQMNSLRAEDTAVYYCARDPPITGTTGGDAFDIWGQGTMVTVSS
VL: not shown
B5: mAb10934 (antibody, V domains shown)
VH: not shown
VL: DIQMTQSPSSLSASVGDRVTITCQASQDIWNYINWYQQKPGKAPKLLIYDASNLKTGVPSRFSGSGSGTDFTFTISSLQPEDIATYYCQQHDDLPPTFGQGTKVEIKR
B6: mAb10938 (antibody, V domains shown)
VH: EVQLVESGGGLVQPGGSLRLSCAVSGFTVSSNYMSWVRQAPGKGLEWVSLIYSGGSTFYADSVKGRFTISRHNSKNTLYLQMNSLRAEDTAVYYCAREGGYSYDYNYWGQGTLVTVSS
VL: B5 VL with W30R, I33L, K55E, S65I, H91Y, D93N, P96I, K103R, V104L
B7: mAb10935 (antibody, V domains shown)
VH: EVQLVESGGGLVQPGGSLRLSCAASGFTVSSNYMSWVRQAPGKGLEWVSLIYSGGSTYYADSVKGRFTISRHNSKNTLYLQMNSLRSEDTAVYYCARVPLGDYYYGMDVWGQGTTVTVSS
VL: B5 VL with W30N, N31K, I33L, K55E, H91S, D93N, P96L, Q100G
B8: mAb10921 (antibody, V domains shown)
VH: EVQLVESGGGLVQPGGSLRLSCAASGITVSSNYMSWVRQAPGKGLEWVSVIYSGGSTFYADSVKGRFTISRHNSKNTLYLQMNSLRAEDTAVYYCARERNFDAFDIWGQGTMVTVSS
VL: DIQMTQSPSSVSASVGDRVTITCRASQGISSWLAWYQQKPGKAPKLLIYAASSLQSGVPSRFSGSGSGTDFTLTISSLQPEDFATYYCQQANSFPLFTFGPGTKVDIKR
B9: mAb10913 (antibody, V domains shown)
VH: EVQLVESGGGLVQPGGSLRLSCAASGFTFRNYEMNWVRQAPGKGLEWVSYITSSGSTMYYADSVKGRFTISRDNAKNSLYLQMNSLRAEDTAVYYCARDGFYYYYAMDVWGQGTTVTVSS
VL: QSVLTQPPSVSAAPGQKVTISCSGSSSNIGNNYVSWYQQLPGTAPKLLIYDNNKRPSGIPDRFSGSKSGTSATLGITGLQTGDEADYYCGTWDSSLSVGRVFGTGTKVTVLG
B10: mAb10982 (antibody, V domains shown)
VH: EVQLVESGGGLVQPGGSLRLSCAASGLTVSSNYMSWVRQAPGKGLEWVSVIYSGGTTYYADSVKGRFTISRHNSKNTLSLQMNSLRAEDTAVYYCARGEGANYYGMDVWGQGTTVTVSS
VL: QSVLTQPPSVSGAPGQRVTISCTGSSSNIGTGYDVHWYQQLPGTAPKLLIYGNSNRPSGVPDRFSGSKSGTSASLAITGLQAEDEADYYCQSYDSSLSGYVVFGGGTKLTVLG
B11: mAb10986 (antibody, V domains shown)
VH: EVQLVESGGGLVQPGGSLRLSCAASEFTVSSNYMSWVRQAPGKGLEWVSVIYSGGSTFYADSVKGRFTISRDNSKNTLYLQMNSLRAEDTAVYYCARALPYGDLHFDYWGQGTLVTVSS
VL: B10 VL with S54T, G99D, Y100S, V101Y, G105T, L109V
B12: mAb10985 (antibody, V domains shown)
VH: EVQLVESGGGLVQPGRSLRLSCAASGFTFDDYAMHWVRQAPGKGLEWVSGISWNRGSIGYADSVKGRFTISRDNAKNSLYLQMSSLRAEDTALYYCAKDGERWDSVVVPSARNGMDVWGQGTTVTVSS
VL: B10 VL with T31A, Y100S, V101Y, G105T, L109V
B13: mAb10920 (antibody, V domains shown)
VH: QVQLVESGGGVVQPGRSLRLSCAASGFTFSYYGMHWVRQAPGKGLEWVAVIWYDGSNKFYADSVKGRFTISRDNSKNTLYLQMNSLRAEDTAVYYCAAARPGYYYGMDVWGQGTTVTVSS
VL: DIQMTQSPSSLSASVGDRVTITCRASQGISNYLAWFQQKPGKAPNSLIYAASSLQRGVPSKFSGSGSGTDFTLTISSLQPEDFATYYCQQYNSYPRTFGQGTKVEIKR
B14: mAb10914 (antibody, V domains shown)
VH: EVQLVESGGGLVQPGGSLRLSCAASGLIVSRNYMIWVRQAPGKGLEWVSVIYSGGSTFYADSVKGRFTISRHNSKNTLYLQMNSLRAEDTAVYYCARDLGTGGMDVWGQGTTVTVSS
VL: DIQLTQSPSFLSASVGDRVTITCWASQGISSYLAWYQQKPGKAPKLLIYAASTLQSGVPSRFSGSGSGTEFTLTISSLQPEDFATYYCQQLNSYPLTFGGGTKVEIKR
B15: mAb10957 (antibody, V domains shown)
VH: B14 VH with L27V, I28T, R31S, I35S, H72D, Y79F, A87I, T101P, G102Y
VL: B8 VL with M4L, S10F, V11L, W32Y, S53T, D70Q, T72I, A91L, F94Y, L96G
B16: mAb10971 (antibody, V domains shown)
VH: EVQLVESGGGLIQPGGSLRLSCAASGVTVSSNYMSWVRQAPGKGLEWVSVIYSGGSTFYSDSVKGRFSISRDNSKNTLYLQMNSLRAEDTAVYYCARDLYYYGMDVWGQGTTVTVSS
VL: DIQLTQSPSFLSASVGDRVTITCRASQGISTYLAWYQQKPGKAPKLLIYAASTLQSGVPSRFSGSGSGTEFTLTISSLQPEDFATYYCQQLDSYPGLTFGGGTKVEIKR
B17: mAb10937 (antibody, V domains shown)
VH: QITLKESGPTLVKPTQTLTLTCTFSGFSLSTNVVGVGWIRQPPGKALEWLALIYWNDDKRYSPSLKSRLTITKDTSKNQVVLTMTNMDPVDTATYYCAHGPTGDYFDYWGQGTLVTVSS
VL: not shown
B18: mAb10964 (antibody, V domains shown)
VH: QVQLQESGPGLVKPSETLSLTCTVSGGSINNYYWIWIRQPPGKGLEWIGYIYHSGSTNYNPSLKSRVTISVDTSKNQFSLKVSSVTAADTAVYYCANMVRGVYEDDYWGQGTLVTVSS
VL: DIQMTQSPSSLSASVGDRVTITCRASQSISNYLNWYQQKPGKAPKLLIFAASSLRSGVPSRFSGSGSGTDFTLTISSLHPEDFATYYCQQNYNTPLTFGPGTKVDIKR
B19: mAb10984 (antibody, V domains shown)
VH: EVQLVESGGGLVQPGGSLRLSCAASGLTVNRNYMSWVRQAPGKGLEWVSLIYSGGSTYYADSVKGRFTISRDNSKNTLYLQMNSLRLEDTAVYYCARGELGIPYGMDVWGQGTTVTVSS
VL: QSVLTQPPSVSAAPGQKVTISCSGSSSNIGNNYVSWYQQLPGTAPKLLIYDNNKRPSGIPDRFSGSKSGTSATLGITGLQTGDEADYYCGTWDSSLSAGVFGGGTKLTVLG

Legend:
[1] = target: T1, MERS-CoV (NCoV/Novel coronavirus) Spike Protein S1 Protein (aa 1-725, His Tag) (Sino 40069-V08B1) (MERS-CoV, UniProt K9N5Q8 18-725); assay: Luminex bead assay, supernatant
T1 sequence: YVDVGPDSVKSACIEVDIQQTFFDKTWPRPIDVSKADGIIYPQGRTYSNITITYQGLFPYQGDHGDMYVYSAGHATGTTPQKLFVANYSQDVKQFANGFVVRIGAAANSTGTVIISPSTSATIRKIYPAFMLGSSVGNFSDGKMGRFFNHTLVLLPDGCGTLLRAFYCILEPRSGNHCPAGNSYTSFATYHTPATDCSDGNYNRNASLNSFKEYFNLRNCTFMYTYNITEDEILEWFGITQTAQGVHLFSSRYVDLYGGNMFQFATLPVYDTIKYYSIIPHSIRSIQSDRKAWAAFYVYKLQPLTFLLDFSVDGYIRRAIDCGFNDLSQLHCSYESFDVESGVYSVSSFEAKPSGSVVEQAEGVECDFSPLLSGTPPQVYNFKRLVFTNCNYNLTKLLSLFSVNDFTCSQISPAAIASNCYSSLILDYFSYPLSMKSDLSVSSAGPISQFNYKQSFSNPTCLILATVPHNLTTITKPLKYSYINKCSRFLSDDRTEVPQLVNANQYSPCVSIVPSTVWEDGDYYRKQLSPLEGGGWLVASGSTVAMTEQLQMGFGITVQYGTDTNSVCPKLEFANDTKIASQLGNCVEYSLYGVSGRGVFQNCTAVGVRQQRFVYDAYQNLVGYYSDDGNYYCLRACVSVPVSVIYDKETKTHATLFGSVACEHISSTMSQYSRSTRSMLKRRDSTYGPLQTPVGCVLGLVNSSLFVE

[2] = target: T2, MERS-CoV (NCoV/Novel coronavirus) Spike Protein fragment (RBD, aa 367-606, His Tag) (Sino 40071-V08B1) (MERS-CoV, UniProt K9N5Q8 367-606); assay: Luminex bead assay, supernatant
T2 sequence: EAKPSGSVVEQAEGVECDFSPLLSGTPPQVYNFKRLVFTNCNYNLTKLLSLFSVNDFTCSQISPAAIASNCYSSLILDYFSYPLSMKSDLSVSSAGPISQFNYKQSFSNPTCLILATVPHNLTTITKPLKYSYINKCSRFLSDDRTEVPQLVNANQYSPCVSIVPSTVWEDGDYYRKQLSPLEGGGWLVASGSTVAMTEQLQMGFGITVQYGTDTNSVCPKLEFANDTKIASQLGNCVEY

Row | Binder | Binding signal (MFI) [1] | Binding signal (MFI) [2]
1 | B1 | 22 MFI | 27 MFI
2 | B2 | 25 MFI | 37 MFI
3 | B3 | 19 MFI | 
4 | B4 | 20 MFI | 29 MFI
5 | B5 | 20 MFI | 24 MFI
6 | B6 | 20 MFI | 25 MFI
7 | B7 |  | 25 MFI
8 | B8 |  | 23 MFI
9 | B9 | 26 MFI | 34 MFI
10 | B10 |  | 29 MFI
11 | B11 | 20 MFI | 27 MFI
12 | B12 | 22 MFI | 31 MFI
13 | B13 | 27 MFI | 39 MFI
14 | B14 | 23 MFI | 31 MFI
15 | B15 | 19 MFI | 
16 | B16 | 19 MFI | 
17 | B17 | 22 MFI | 27 MFI
18 | B18 | 19 MFI | 
19 | B19 | 20 MFI | 29 MFI
